The results in this text go back to patent US20050170442.

This series concerns the target T1, Biotin-labeled fluorescent peptide CPRPFSVPP(S*)PDK-(5-FAM) (not fully specified).
T1 chain: CPRPFSVPPSPDK

B1: GSK3α, rHuman (protein)
chain: MSGGGPSGGGPGGSGRARTSSFAEPGGGGGGGGGGPGGSASGPGGTGGGKASVGAMGGGVGASSSGGGPGGSGGGGSGGPGAGTSFPPPGVKLGRDSGKVTTVVATLGQGPERSQEVAYTDIKVIGNGSFGVVYQARLAETRELVAIKKVLQDKRFKNRELQIMRKLDHCNIVRLRYFFYSSGEKKDELYLNLVLEYVPETVYRVARHFTKAKLTIPILYVKVYMYQLFRSLAYIHSQGVCHRDIKPQNLLVDPDTAVLKLCDFGSAKQLVRGEPNVSYICSRYYRAPELIFGATDYTSSIDVWSAGCVLAELLLGQPIFPGDSGVDQLVEIIKVLGTPTREQIREMNPNYTEFKFPQIKAHPWTKVFKSRTPPEAIALCSSLLEYTPSSRLSPLEACAHSFFDELRCLGTQLPNNRPLPPLFNFSAGELSIQPSLNAILIPPHLRSPAGTTTLTPSSQALTETPTSSDWQSTDATPTLTNSS
For B1, the “TR-FRET ratio (Em520/Em495) after kinase reaction, chymotrypsin development and Tb-streptavidin detection” value was “with GSK3a, a higher TR-FRET ratio than without GSK3α is seen”; the “TR-FRET ratio (Em520/Em495) in the chymotrypsin titration” value is given as “with GSK3α a higher TR-FRET ratio than without GSK3α is seen”; the “amount of enzyme/well needed for roughly 50% maximal signal at 10 µM ATP/well (TR-FRET enzyme titration)” value amounted to 0.05 µg/ml for GSK3α.
